According to patent publication US20240287172A1 (SCIRHOM, published 2024):
Residue numbers refer to the chain shown, from its start.

T1: hiR2-FL-E557D-T7 (human, UniProt Q6PJF5 1-856)
T1 sequence: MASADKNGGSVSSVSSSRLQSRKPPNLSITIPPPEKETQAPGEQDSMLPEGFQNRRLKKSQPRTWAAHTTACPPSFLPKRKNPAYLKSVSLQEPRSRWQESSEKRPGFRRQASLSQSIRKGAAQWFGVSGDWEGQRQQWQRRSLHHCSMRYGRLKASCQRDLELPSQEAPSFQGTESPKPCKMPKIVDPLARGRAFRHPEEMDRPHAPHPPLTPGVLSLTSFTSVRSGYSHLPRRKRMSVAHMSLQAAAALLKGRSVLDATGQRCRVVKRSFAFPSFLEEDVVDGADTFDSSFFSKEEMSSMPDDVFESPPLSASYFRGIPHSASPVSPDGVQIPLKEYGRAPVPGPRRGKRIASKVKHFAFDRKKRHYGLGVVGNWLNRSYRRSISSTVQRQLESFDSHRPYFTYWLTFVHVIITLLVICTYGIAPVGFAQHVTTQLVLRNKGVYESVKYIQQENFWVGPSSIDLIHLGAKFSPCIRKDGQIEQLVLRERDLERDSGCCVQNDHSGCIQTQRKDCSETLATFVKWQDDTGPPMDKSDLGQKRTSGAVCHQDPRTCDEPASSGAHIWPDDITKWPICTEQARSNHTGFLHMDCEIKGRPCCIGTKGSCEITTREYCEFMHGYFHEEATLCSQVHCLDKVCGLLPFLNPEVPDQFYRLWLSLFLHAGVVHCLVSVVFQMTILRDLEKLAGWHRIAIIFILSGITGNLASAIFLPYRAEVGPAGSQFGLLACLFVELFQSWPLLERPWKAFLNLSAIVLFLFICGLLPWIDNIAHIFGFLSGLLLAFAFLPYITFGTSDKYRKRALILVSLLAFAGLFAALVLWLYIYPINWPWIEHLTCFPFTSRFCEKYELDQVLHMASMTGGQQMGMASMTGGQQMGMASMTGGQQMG

T2: hiR2-FL-Q527P-T7 (human, UniProt Q6PJF5 1-856)
T2 sequence: T1 sequence with Q527P, D557E

B1: antibody 3 (antibody, V domains shown)
VH: QVTLKESGPGILQPSQTLSLTCSFSGFSLTTFAMGIGWVRQPSGKGLEWLAHIWWDGEKYNNPVLKSRLTISKDTSKNQVFLRIANVDTPDTATYYCARISSIYYIIDNWGQGTSVTVSS
VL: DIVLTQSPATLSVTPGHSVSLSCRASQSISNNLHWYQKKSHESPRLLIKYVSQSISGIPSRFSGSGSGTDFTLSINSVETEDFGMYFCQQSYNWPLTFGAGTKLELK
notes: mouse IgG, kappa light chain; also called clone #3; purified antibody 3
B2: antibody 48 (antibody, V domains shown)
VH: QVQLQQSGTELVRPGTSVKVSCKASGYAFTNYLIEWVKQRPGQGLEWIGVINPGSGFTKYNEKFKGKATLTADKSSSTVYMHLSSLTSEDSAVYFCARGLYRAMDYWGQGTSVTVSS
VL: DIQMTQSPASQSASLGESVTITCLASQTIATWLAWYQQKPGKSPQLLIYGATTLADGVPSRFSGGGSGTKFSFKISSLQAEDFVSYYCQQLYSTPYTFGGGTKLEIK
notes: mouse IgG, kappa light chain; also called clone #48; purified antibody 48
B3: antibody 50 (antibody, V domains shown)
VH: B2 VH with T9A, T16A, T30S, V79A, H82Q
VL: B2 VL with A30G, G50A, T52A, T53S, S85N, L91I
notes: mouse IgG, kappa light chain; also called clone #50; purified antibody 50
B4: antibody 34 (antibody, V domains shown)
VH: QVTLKESGPGILQPSQTLSLTCSFSGFSLSTFSLGVGWIRQSSGKGLEWLAHIWWDDEKYYNPALKSRLTISKDTSKNQVFLKIANVDAADTATYYCARAYYSKSYYALDYWGQGTSVTVSS
VL: DIQMTQSPSSLSASLGERVSLTCRASQEISGYLSWLQQKPDGTIKRLIYAASTLDSGVPKRFSGSRSGSDYSLAISSLESEDFADYYCLQYANFPFTFGSGTKLEIK
notes: mouse IgG, kappa light chain; also called clone #34; purified antibody 34
B5: antibody 5 (antibody, V domains shown)
VH: QVTLKESGPGILQPSQTLSLTCSFSGFSLSTFGMGVGWIRQPSGKGLEWLAHIWWDDEKYYNSALKSRLTISKATSKNQAFLKIANVDTADTATYYCARISNYGSNYWYFNVWGTGTTVTVSS
VL: QVVLTQSPALMSASPGEKVTMTCSAGSSVSCMYWYQQKPGSSPRVLIYDTSNLASGVPARFTGSGSGTSYSLTISRMEAEDAASYYCQQWNSYPLTFGAGTKLELK
notes: mouse IgG, kappa light chain; also called clone #5; purified antibody 5
B6: antibody 44 (antibody, V domains shown)
VH: B5 VH with G44E, E58D, S63P, A74D, A80I, A85T, D91E, A98S, S101G, N111D
VL: QIVLTQSPAVMSASPGEKVTMTCTASSSVYYMYWYQQTPGSSPRLLIYDTSNLASGVPVRFSGSGSGTSYSLTISRMEAEDAATYYCQQWNTYPLTFGAGTKLELK
notes: mouse IgG, kappa light chain; also called clone #44; purified antibody 44
B7: antibody 43 (antibody, V domains shown)
VH: B5 VH with T3A, P42S, H52N, E58D, S63P, A74D, T75A, S101G, N111D
VL: QIVLTQSPAIMSASPGERVTMTCSANSRISYMYWYQQKPGSSPRLLIYDTSNLASGVPVRFSGSGSGTSYSLTISRMEAEDAATYNCQQWSSYPLTFGAGTKLELK
notes: mouse IgG, kappa light chain; also called clone #43; purified antibody 43
B8: antibody 42 (antibody, V domains shown)
VH: B5 VH with F24L, M34R, S63P, A74D, A80V, K83R, S101Q, N111D
VL: B7 VL with Q1L, R18K, S24G, N26T, Y33F, L45V, M77V, A82V, N86Y, S91N
notes: mouse IgG, kappa light chain; also called clone #42; purified antibody 42
B9: antibody 22 (antibody, V domains shown)
VH: B5 VH with A80V
VL: B5 VL with C31Y, S84T
notes: mouse IgG, kappa light chain; also called clone #22; purified antibody 22

Tests used:
[1] = molecular target: T1, hiR2-FL-E557D-T7; assay: FACS, MEF-DKO cells, 3 µg/ml
[2] = molecular target: T2, hiR2-FL-Q527P-T7; assay: FACS, MEF-DKO cells, 3 µg/ml

Row | Binder | loss of binding vs wild type [1] | loss of binding vs wild type [2]
1 | B1 | ≥ 60% | ≥ 30%
2 | B2 | ≥ 30% | ≥ 30%
3 | B3 | ≥ 30% | ≥ 30%
4 | B4 | ≥ 60% | –
5 | B5 | ≥ 60% | ≥ 60%
6 | B6 | ≥ 30% | ≥ 60%
7 | B7 | ≥ 30% | ≥ 60%
8 | B8 | ≥ 30% | ≥ 30%
9 | B9 | ≥ 30% | –
